Data as given in patent US20250051425A1 (YALE UNIVERSITY, published 2025).

Columns and labels:
[1] = target: T1, Influenza A H1N1 (A/Puerto Rico/8/1934) Hemagglutinin/HA Protein (ECD, His Tag) (Influenza A H1N1 (A/Puerto Rico/8/1934), UniProt P03452 18-528); experiment: ELISA, coated antigen
T1 construct: extracellular domain; Bought; also called influenza A/PR8 (H1N1) hemagglutinin (HA); H1N1 HA

SARS S1 protein, His Tag = target: T2, SARS S1 protein, His Tag (SARS-CoV-1, UniProt P59594 14-667); experiment: ELISA, coated antigen, mAb 3 µg/mL
T2 construct: domain: S1; also called recombinant severe acute respiratory syndrome coronavirus 1 (SARS-CoV-1) spike protein

T1 sequence (P03452 18-528): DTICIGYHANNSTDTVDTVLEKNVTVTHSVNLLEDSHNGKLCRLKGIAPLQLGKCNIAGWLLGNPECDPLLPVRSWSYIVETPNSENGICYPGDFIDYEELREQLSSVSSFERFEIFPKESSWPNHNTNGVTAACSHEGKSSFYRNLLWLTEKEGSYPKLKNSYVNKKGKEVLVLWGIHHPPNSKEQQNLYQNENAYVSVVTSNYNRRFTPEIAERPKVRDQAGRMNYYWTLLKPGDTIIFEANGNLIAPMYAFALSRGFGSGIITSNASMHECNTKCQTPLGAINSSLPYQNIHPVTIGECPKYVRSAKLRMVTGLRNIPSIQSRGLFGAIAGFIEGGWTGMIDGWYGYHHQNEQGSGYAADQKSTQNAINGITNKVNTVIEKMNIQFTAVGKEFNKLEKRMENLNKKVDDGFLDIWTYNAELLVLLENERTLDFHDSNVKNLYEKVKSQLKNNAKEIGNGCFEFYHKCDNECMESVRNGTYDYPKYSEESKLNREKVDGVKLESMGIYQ

B1: IGHV6-3 monoclonal antibody (mouse IgG2c, Ig kappa) (antibody, V domains shown)
VH: EVKLEESGGGLVQPGGSMKLSCVASGFTFSNYWMNWVRQSPEKGLEWVAQIRLKSDNYATHYAESVKGRFTISRDDSKSSVYLQMNNLRAEDTGIYYCTDITGPIDYWGQGTTLTVSS
VL: DIKMTQSPSSMYASLGERVTITCKASQDINSYLSWFQQKPGKSPKTLIYRANRLVDGVPSRFSGSGSGQDYSLTISSLEYEDMGIYYCLQYDEFPYTFGGGTKLEIK
notes: also called IGHV6-3 mAb; Mouse IGHV6-3 mAb, g2c
[1]
  binding result: binds
SARS S1 protein, His Tag
  binding result: binds
